Assay results: FireProtDB
Several values for one entry are separate records, joined by “and”; a condition that tells them apart may be missing. Equal values may be shown once.

[1] = Homo sapiens, pH 7.5, Thermal, CD, HEPES 0.8mM, NaCl 6mM, transition: 2, structure 6EW2
[2] = Homo sapiens, pH 7.5, Thermal, DSF, Hepes 25mM, NaCl 150mM, structure 6DLO
[3] = Saccharomyces cerevisiae (strain ATCC 204508 / S288c), pH 6, 46.5 °C, Thermal, Absorbance, Sodium phosphate 100 mM, reversible: yes, structure 1YCC
[4] = Saccharomyces cerevisiae (strain ATCC 204508 / S288c), pH 6, Thermal, Absorbance, Sodium phosphate 100 mM, reversible: yes, structure 1YCC
[5] = Escherichia coli (strain K12), pH 7.2, Thermal, DSC, HEPES 0.05 mM
[6] = Escherichia coli (strain K12), pH 7.4, Thermal, DSC, HEPES 50 mM
[7] = Escherichia coli (strain K12), pH 7.2, 51.8 °C, Thermal, DSC, HEPES 0.05 mM, structure 1ANK
[8] = Escherichia coli (strain K12), pH 7.2, Thermal, DSC, HEPES 0.05 mM, structure 1ANK
[9] = Escherichia coli (strain K12), pH 7, 30 °C, Urea, CD, Potassium phosphate 10 mM
[10] = Gallus gallus, pH 7, 25 °C, NaClO4 titration, CD, PIPES 10 mM, NaCl 50 mM, reversible: no
[11] = Escherichia coli (strain K12), pH 7.5, Thermal, CD, Potassium phosphate 10 mM, reversible: yes, structure 1EZA
[12] = Escherichia coli (strain K12), pH 7.5, Thermal, DSC, Potassium phosphate 10 mM, reversible: yes, structure 1EZA
[13] = Oryctolagus cuniculus, pH 7, Thermal, DSC, Glycerol 20 % v/v, KCl 100 mM, reversible: no, whole UniProt chain shown
[14] = Escherichia coli (strain K12), pH 7, 10 °C, Urea, CD, Potassium phosphate 50 mM, KCl 100 mM
[15] = Escherichia coli (strain K12), pH 7, 25 °C, GdnHCl, Fluorescence, potassium phosphate 50 mM, KCl 100 M, reversible: yes
[16] = Escherichia coli (strain K12), pH 7, 25 °C, Urea, CD, Potassium phosphate 50 mM, KCl 100 mM
[17] = Escherichia coli (strain K12), pH 7, 25 °C, Urea, Fluorescence, potassium phosphate 50 mM, KCl 100 mM, reversible: yes
[18] = Homo sapiens, pH 7.4, Thermal, CD, phosphate 10 mM, NaCl 10 mM, transition: 2, structure 2NLU
[19] = Escherichia coli (strain K12), pH 7.4, Thermal, DSC, HEPES 50 mM, structure 1ANK
[20] = Saccharomyces cerevisiae (strain ATCC 204508 / S288c), pH 7.5, 22 °C, GdnHCl, CD, Tris 20 mM, NaCl 40 mM, structure 1YCC
[21] = Saccharomyces cerevisiae (strain ATCC 204508 / S288c), pH 4.6, 37 °C, Thermal, DSC, Potassium acetate 0.1 M, reversible: yes, structure 1YCC
[22] = Bos taurus, pH 8, Thermal, DSC, Tris-HCl 10 mM, NaCl 200 mM, reversible: yes
[23] = Saccharomyces cerevisiae (strain ATCC 204508 / S288c), pH 6, 20 °C, GdnHCl, Fluorescence, Sodium phosphate 0.1 M, reversible: yes, structure 1YCC

Chain of Cytochrome c isoform 1 G35S|N58I, P00044 G35S N58I (P00044 whole entry G35S/N58I, canonical isoform): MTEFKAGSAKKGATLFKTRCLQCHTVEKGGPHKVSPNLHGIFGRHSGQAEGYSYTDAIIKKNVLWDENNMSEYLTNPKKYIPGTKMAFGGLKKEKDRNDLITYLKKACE
Chain of Cytochrome c isoform 1 P77I, P00044 (P00044 whole entry P77I, canonical isoform): as the sequence (P00044 whole entry G35S/N58I, canonical isoform) above, with S35G, I58N, P77I counted along it
Chain of Cold shock protein CspA wild type, P0A9X9 (P0A9X9 whole entry): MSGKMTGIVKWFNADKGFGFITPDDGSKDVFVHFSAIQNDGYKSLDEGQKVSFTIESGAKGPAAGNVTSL
Chain of Cytochrome c isoform 1 P77T, P00044 (P00044 whole entry P77T, canonical isoform): as the sequence (P00044 whole entry G35S/N58I, canonical isoform) above, with S35G, I58N, P77T counted along it
Chain of Cytochrome c isoform 1 C108S, P00044 (P00044 whole entry C108S, canonical isoform): as the sequence (P00044 whole entry G35S/N58I, canonical isoform) above, with S35G, I58N, C108S counted along it
Chain of Tropomyosin alpha-1 chain wild type, P04268 (P04268 whole entry): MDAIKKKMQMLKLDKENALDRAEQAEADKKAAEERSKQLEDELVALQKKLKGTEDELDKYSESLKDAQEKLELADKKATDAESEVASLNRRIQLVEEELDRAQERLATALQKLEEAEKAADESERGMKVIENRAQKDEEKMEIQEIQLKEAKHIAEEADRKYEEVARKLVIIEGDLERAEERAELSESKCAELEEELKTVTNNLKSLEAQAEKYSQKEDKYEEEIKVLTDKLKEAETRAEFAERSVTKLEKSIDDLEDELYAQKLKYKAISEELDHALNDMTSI
Chain of Adenylate kinase wild type, P69441 (P69441 whole entry): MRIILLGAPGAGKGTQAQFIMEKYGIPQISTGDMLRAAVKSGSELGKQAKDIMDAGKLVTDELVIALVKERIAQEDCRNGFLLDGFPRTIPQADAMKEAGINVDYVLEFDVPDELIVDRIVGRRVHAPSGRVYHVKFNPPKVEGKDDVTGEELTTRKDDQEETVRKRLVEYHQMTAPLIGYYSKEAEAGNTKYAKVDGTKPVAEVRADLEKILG
Chain of Cytochrome c isoform 1 H32N|H39N|H45Q|C108S, P00044 H32N H39N H45Q C108S (P00044 whole entry H32N/H39N/H45Q/C108S, canonical isoform): as the sequence (P00044 whole entry G35S/N58I, canonical isoform) above, with H32N, S35G, H39N, H45Q, I58N, C108S counted along it
Chain of Cytochrome c isoform 1 N58I, P00044 (P00044 whole entry N58I, canonical isoform): as the sequence (P00044 whole entry G35S/N58I, canonical isoform) above, with S35G counted along it
Chain of Superoxide dismutase [Cu-Zn] wild type, P00442 (P00442 whole entry): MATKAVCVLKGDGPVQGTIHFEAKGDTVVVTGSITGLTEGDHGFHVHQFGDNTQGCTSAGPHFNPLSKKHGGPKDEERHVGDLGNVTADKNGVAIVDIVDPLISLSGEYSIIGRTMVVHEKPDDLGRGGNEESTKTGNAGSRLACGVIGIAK
Chain of Cytochrome c isoform 1 N58I|C108A, P00044 N58I C108A (P00044 whole entry N58I/C108A, canonical isoform): as the sequence (P00044 whole entry G35S/N58I, canonical isoform) above, with S35G, C108A counted along it
Chain of Cytochrome c isoform 1 C108A, P00044 (P00044 whole entry C108A, canonical isoform): as the sequence (P00044 whole entry G35S/N58I, canonical isoform) above, with S35G, I58N, C108A counted along it
Chain of Cytochrome c V93A, P67881 (P67881 whole entry V93A): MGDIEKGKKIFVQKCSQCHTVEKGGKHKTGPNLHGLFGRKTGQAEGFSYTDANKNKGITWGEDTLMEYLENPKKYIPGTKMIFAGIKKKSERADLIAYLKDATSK
Chain of Hepatoma-derived growth factor P24A, P51858 (P51858 whole entry P24A): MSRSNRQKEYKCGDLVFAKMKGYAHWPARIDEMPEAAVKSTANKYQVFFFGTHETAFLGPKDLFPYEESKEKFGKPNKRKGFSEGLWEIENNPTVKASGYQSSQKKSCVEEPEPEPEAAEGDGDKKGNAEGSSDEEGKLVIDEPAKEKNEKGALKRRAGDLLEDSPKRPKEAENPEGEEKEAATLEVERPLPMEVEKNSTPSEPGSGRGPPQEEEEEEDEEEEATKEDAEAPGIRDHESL
Chain of Endo-1,4-beta-xylanase wild type, Q56013 (Q56013 entry or part of it): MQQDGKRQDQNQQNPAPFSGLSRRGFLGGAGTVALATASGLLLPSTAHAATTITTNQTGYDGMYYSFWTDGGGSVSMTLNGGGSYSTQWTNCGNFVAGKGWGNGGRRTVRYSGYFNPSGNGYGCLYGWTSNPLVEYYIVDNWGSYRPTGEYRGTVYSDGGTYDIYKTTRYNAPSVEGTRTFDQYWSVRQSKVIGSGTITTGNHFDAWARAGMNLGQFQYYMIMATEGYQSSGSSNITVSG
Chain of Cytochrome c V93A|S104A, P67881 V93A S104A (P67881 whole entry V93A/S104A): as the sequence (P67881 whole entry V93A) above, with S104A counted along it
Chain of Creatine kinase B-type wild type, P12277 (P12277 whole entry): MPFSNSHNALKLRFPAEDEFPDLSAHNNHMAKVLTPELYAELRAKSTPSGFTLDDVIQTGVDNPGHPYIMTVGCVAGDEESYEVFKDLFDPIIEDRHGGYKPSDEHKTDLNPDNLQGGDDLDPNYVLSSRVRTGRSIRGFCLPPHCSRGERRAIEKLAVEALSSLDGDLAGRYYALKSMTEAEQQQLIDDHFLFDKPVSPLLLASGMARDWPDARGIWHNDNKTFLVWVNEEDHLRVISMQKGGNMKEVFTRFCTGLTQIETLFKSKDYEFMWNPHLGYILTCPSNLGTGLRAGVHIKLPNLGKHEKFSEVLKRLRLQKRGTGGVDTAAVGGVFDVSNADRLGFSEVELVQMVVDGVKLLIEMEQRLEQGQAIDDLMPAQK
Chain of Hepatoma-derived growth factor wild type, P51858 (P51858 whole entry): as the sequence (P51858 whole entry P24A) above, with A24P counted along it
Chain of Cytochrome c wild type, P00041 (P00041 whole entry): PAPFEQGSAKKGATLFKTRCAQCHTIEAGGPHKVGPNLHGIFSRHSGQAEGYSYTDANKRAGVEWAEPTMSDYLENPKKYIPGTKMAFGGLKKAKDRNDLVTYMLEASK
Chain of Cytochrome c wild type, P67881 (P67881 whole entry): as the sequence (P67881 whole entry V93A) above, with A93V counted along it

Myelin P2 protein (from UniProt P02689) I52T
change of melting temperature, mutant - wild type (higher = more stable) [1]: -13 °C | ddG of mutation (higher = less stable) [1]: 5.17 kcal/mol

Tropomyosin alpha-1 chain wild type, P04268
unfolding free energy (Gallus gallus, pH 7, 39 °C, Thermal, CD, Sodium phosphate 10 mM, NaCl 0.5 M, reversible: yes): 9 kcal/mol and 12.4 kcal/mol and 9.6 kcal/mol | unfolding enthalpy (van 't Hoff) (Gallus gallus, pH 7, Thermal, CD, Sodium phosphate 10 mM, NaCl 0.5 M, reversible: yes): 162 kcal/mol and 225 kcal/mol and 98 kcal/mol

Leucine-rich repeat serine/threonine-protein kinase 2, Q5S007 G2385R
Tm [2]: 31.3 °C | change of melting temperature, mutant - wild type (higher = more stable) [2]: 0.33 °C

Cytochrome c wild type, P00041
unfolding free energy (Pichia kudriavzevii, pH 6.5, 25 °C, GdnHCl, CD, HCl 0.1 M, reversible: yes): 14 kcal/mol

Cytochrome c isoform 1 N58I|C108A, P00044 N58I C108A
ddG of mutation (higher = less stable) [3]: -6.2 kcal/mol | heat capacity change of unfolding [3]: 2 kcal/mol/K | Tm [4]: 71.5 °C | change of melting temperature, mutant - wild type (higher = more stable) [4]: 25 °C | heat capacity change of unfolding [4]: 2 kcal/mol/K | unfolding enthalpy (van 't Hoff) [4]: 115 kcal/mol

Endo-1,4-beta-xylanase wild type, Q56013
Tm (Streptomyces sp. EC3, pH 6, Thermal, CD, Sodium phosphate 25 mM, reversible: no): 56.8 °C | Tm (Streptomyces sp. EC3, pH 6, Thermal, Fluorescence, Sodium phosphate 25 mM, reversible: no): 61.1 °C

Myelin P2 protein (from UniProt P02689) T51P
change of melting temperature, mutant - wild type (higher = more stable) [1]: -24 °C | ddG of mutation (higher = less stable) [1]: 1.51 kcal/mol

Adenylate kinase wild type, P69441
Tm [5]: 51.8 °C | unfolding enthalpy (calorimetric) [5]: 95 kcal/mol | Tm [6]: 51.8 °C | unfolding enthalpy (calorimetric) [6]: 95 kcal/mol | unfolding enthalpy (van 't Hoff) [6]: 158 kcal/mol

Adenylate kinase D84H, P69441
ddG of mutation (higher = less stable) [7]: 1.4 kcal/mol | Tm [8]: 44.6 °C | change of melting temperature, mutant - wild type (higher = more stable) [8]: -7.2 °C | unfolding enthalpy (calorimetric) [8]: 63 kcal/mol

Phosphocarrier protein HPr wild type, P0AA04
denaturant m value [9]: 1.06 kcal/mol/M | denaturant midpoint (higher = more stable) [9]: 4.34 M | unfolding free energy (Escherichia coli (strain K12), pH 7, 30 °C, Urea, CD, Potassium phosphate 50 mM, reversible: yes): 4.95 kcal/mol | Tm (Escherichia coli (strain K12), pH 7, Thermal, CD, Potassium phosphate 10 mM): 30 °C

Cytochrome c V93A, P67881
ddG of mutation (higher = less stable) [10]: 0.26 kcal/mol | unfolding free energy [10]: 4.91 kcal/mol

Cytochrome c isoform 1 C108S, P00044
ddG of mutation (higher = less stable) [3]: -2.8 kcal/mol | heat capacity change of unfolding [3]: 2 kcal/mol/K | Tm [4]: 57.8 °C | change of melting temperature, mutant - wild type (higher = more stable) [4]: 11.3 °C | heat capacity change of unfolding [4]: 2 kcal/mol/K | unfolding enthalpy (van 't Hoff) [4]: 87 kcal/mol

Creatine kinase B-type wild type, P12277
Tm (Homo sapiens, pH 8, Thermal, CD, Tris-HCl, transition: 2, reversible: No): 47.3 °C | Tm (Homo sapiens, pH 8, Thermal, Fluorescence, Tris-HCl, transition: 2, reversible: No): 45.7 °C

Phosphoenolpyruvate-protein phosphotransferase H189E, P08839
Tm [11]: 52.1 °C | unfolding enthalpy (van 't Hoff) [11]: 128 kcal/mol | Tm [12]: 53.7 °C | unfolding enthalpy (calorimetric) [12]: 135 kcal/mol

Adenylate kinase G85V, P69441
ddG of mutation (higher = less stable) [7]: 2.4 kcal/mol | Tm [8]: 40.7 °C | change of melting temperature, mutant - wild type (higher = more stable) [8]: -11.1 °C | unfolding enthalpy (calorimetric) [8]: 70 kcal/mol

AKKVLPLLLPPLVXAALGLAXF [wild type]
Tm [13]: 42.3 °C | unfolding enthalpy (calorimetric) [13]: 300 kcal/mol

Cytochrome c V93A|S104A, P67881 V93A S104A
ddG of mutation (higher = less stable) [10]: 0.26 kcal/mol | unfolding free energy [10]: 4.91 kcal/mol

Phosphoenolpyruvate-protein phosphotransferase H189A, P08839
Tm [11]: 54 °C | unfolding enthalpy (van 't Hoff) [11]: 118 kcal/mol | Tm [12]: 55.8 °C | unfolding enthalpy (calorimetric) [12]: 143 kcal/mol

Cold shock protein CspA wild type, P0A9X9
denaturant m value [14]: 0.59 kcal/mol/M | denaturant midpoint (higher = more stable) [14]: 4.95 M | unfolding free energy [14]: 2.92 kcal/mol | denaturant m value [15]: 2.2 kcal/mol/M | denaturant midpoint (higher = more stable) [15]: 1.4 M | unfolding free energy [15]: 3.1 kcal/mol | denaturant m value [16]: 0.71 kcal/mol/M | denaturant midpoint (higher = more stable) [16]: 4.2 M | unfolding free energy [16]: 3 kcal/mol | denaturant m value [17]: 0.71 kcal/mol/M | denaturant midpoint (higher = more stable) [17]: 4.2 M | unfolding free energy [17]: 3 kcal/mol | Tm (Escherichia coli (strain K12), pH 7, Thermal, CD, potassium phosphate 50 mM, KCl 100 M, reversible: yes): 59 °C

Hepatoma-derived growth factor wild type, P51858
Tm (Homo sapiens, pH 7.4, Thermal, CD, phosphate 10 mM, NaCl 10 mM, transition: 2): 47 °C

Cytochrome c isoform 1 G35S|N58I, P00044 G35S N58I
ddG of mutation (higher = less stable) [3]: 1.5 kcal/mol | heat capacity change of unfolding [3]: 2 kcal/mol/K | Tm [4]: 40.3 °C | change of melting temperature, mutant - wild type (higher = more stable) [4]: -6.2 °C | heat capacity change of unfolding [4]: 2 kcal/mol/K | unfolding enthalpy (van 't Hoff) [4]: 58 kcal/mol

Hepatoma-derived growth factor P24A, P51858
Tm [18]: 40 °C | change of melting temperature, mutant - wild type (higher = more stable) [18]: -7 °C

Cytochrome c isoform 1 C108A, P00044
ddG of mutation (higher = less stable) [3]: -2.9 kcal/mol | heat capacity change of unfolding [3]: 2 kcal/mol/K | Tm [4]: 58.1 °C | change of melting temperature, mutant - wild type (higher = more stable) [4]: 11.6 °C | heat capacity change of unfolding [4]: 2 kcal/mol/K | unfolding enthalpy (van 't Hoff) [4]: 89 kcal/mol

Adenylate kinase R88G, P69441
ddG of mutation (higher = less stable) (Escherichia coli (strain K12), pH 7.4, 51.8 °C, Thermal, DSC, HEPES 50 mM, structure 1ANK): 0.2 kcal/mol | Tm [19]: 51 °C | change of melting temperature, mutant - wild type (higher = more stable) [19]: -0.8 °C | unfolding enthalpy (calorimetric) [19]: 75 kcal/mol | unfolding enthalpy (van 't Hoff) [19]: 161 kcal/mol

Adenylate kinase F86L, P69441
ddG of mutation (higher = less stable) [7]: 0.8 kcal/mol | Tm [8]: 49.2 °C | change of melting temperature, mutant - wild type (higher = more stable) [8]: -2.6 °C | unfolding enthalpy (calorimetric) [8]: 97 kcal/mol

Cytochrome c isoform 1 H32N|H39N|H45Q|C108S, P00044 H32N H39N H45Q C108S
ddG of mutation (higher = less stable) [20]: 1.05 kcal/mol | denaturant m value [20]: 3.83 kcal/mol/M | denaturant midpoint (higher = more stable) [20]: 1.04 M | unfolding free energy [20]: 4 kcal/mol

Cytochrome c wild type, P67881
unfolding free energy [10]: 5.17 kcal/mol

Cytochrome c isoform 1 N58I, P00044
unfolding free energy (Saccharomyces cerevisiae (strain ATCC 204508 / S288c), pH 4.6, 27 °C, GdnHCl, CD, Sodium acetate 50 mM, reversible: yes, structure 1YCC): 6.8 kcal/mol and 18 kcal/mol | ddG of mutation (higher = less stable) [21]: -3.14 kcal/mol | unfolding free energy [21]: 7.17 kcal/mol | ddG of mutation (higher = less stable) [3]: -4.3 kcal/mol | heat capacity change of unfolding [3]: 2 kcal/mol/K

APRLPQCQGDDQEKCLCNKDECPPGQCRFPRGDADPYCE [Decorsin wild type]
Tm (Macrobdella decora, pH 7, Thermal, CD, Na2HPO4 10 mM, reversible: Yes, whole UniProt chain shown): 74 °C

Superoxide dismutase [Cu-Zn] wild type, P00442
Tm (Bos taurus, pH 7.8, Thermal, DSC, Potassium phosphate 100 mM, reversible: no (32%)): 88.3 °C | Tm [22]: 59.9 °C | unfolding enthalpy (calorimetric) [22]: 152 kcal/mol

Cytochrome c isoform 1 P77I, P00044
ddG of mutation (higher = less stable) [23]: 1.7 kcal/mol | denaturant midpoint (higher = more stable) [23]: 0.72 M | unfolding free energy [23]: 1.9 kcal/mol

Cytochrome c isoform 1 P77T, P00044
ddG of mutation (higher = less stable) [23]: 1.7 kcal/mol | denaturant midpoint (higher = more stable) [23]: 0.72 M | unfolding free energy [23]: 1.9 kcal/mol
